According to patent publication US20110158985A1:

Biological target: F protein of RSV (Long strain) (RSV (Long strain)) (UniProt P12568)
Experiment: cell-based or functional assay

Sequence of palivizumab F(ab')2 (VH): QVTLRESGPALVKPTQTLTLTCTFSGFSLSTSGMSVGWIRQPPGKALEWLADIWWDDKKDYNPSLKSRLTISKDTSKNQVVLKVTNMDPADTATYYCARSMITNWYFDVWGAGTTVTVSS
Sequence of palivizumab F(ab')2 (VL): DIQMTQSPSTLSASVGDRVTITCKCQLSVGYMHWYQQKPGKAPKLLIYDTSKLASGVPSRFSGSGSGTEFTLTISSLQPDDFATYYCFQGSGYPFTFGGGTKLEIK
Sequence of F protein of RSV (Long strain) (RSV (Long strain)) (P12568 26-574): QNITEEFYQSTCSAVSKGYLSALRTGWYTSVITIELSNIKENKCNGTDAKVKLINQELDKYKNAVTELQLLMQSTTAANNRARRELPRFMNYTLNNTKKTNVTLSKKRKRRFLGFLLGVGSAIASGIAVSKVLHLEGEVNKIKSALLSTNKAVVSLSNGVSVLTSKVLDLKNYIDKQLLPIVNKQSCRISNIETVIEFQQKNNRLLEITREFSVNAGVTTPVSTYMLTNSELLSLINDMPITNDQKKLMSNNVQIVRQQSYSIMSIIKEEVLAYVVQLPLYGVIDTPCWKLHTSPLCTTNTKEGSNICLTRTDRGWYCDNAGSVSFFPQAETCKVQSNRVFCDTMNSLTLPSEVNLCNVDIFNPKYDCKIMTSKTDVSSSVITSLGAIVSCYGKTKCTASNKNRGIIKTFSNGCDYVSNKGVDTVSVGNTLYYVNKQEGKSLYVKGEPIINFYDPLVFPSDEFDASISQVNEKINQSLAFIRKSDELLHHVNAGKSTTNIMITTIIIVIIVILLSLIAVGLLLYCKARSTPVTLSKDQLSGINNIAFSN

palivizumab F(ab')2
Microneutralization IC50: 1.4 nM
